Measurements from US20060121462A1, “Receptor and screening methods” (priority 2003, published 2006).

Key:
C5L2+Gα16 = biological target: T1, C5L2+Gα16 (Homo sapiens, UniProt Q9P296); assay type: cell-based; conditions: C5L2+Gα16 cells after 10 ng/ml PT, FIG. 4D
T1 construct: inferred from the sorting antibody; expressed in transfected cells

C5L2 [1] = biological target: T2, C5L2 (Homo sapiens, UniProt Q9P296); assay: Degranulation (β-hexosaminidase) and enhancement of IgE-receptor-mediated degranulation, C5L2-transfected RBL cells; assay type: cell-based; conditions: enhancement of IgE-mediated degranulation, FIG. 3A
T2 construct: expressed in transfected cells

C5L2 [2] = biological target: T2, C5L2; assay: Competition binding with 125I-C3a, C5L2-transfected RBL cells; conditions: FIG. 1A
Procedure: (§1) FIG. 1 illustrates C3a des-Arg^77 and C4a des-Arg^77 bind to RBL cells expressing C5L2. RBL cells transfected with C5L2 were incubated with the stated concentrations of complement fragments for 10 min prior to the addition of 50 pM ^125I-C3a (A) or 50 pM ^125I-C5a (B). Results are the means of n (n shown in Table 1) separate experiments performed in duplicate±S.E.;
(§2) C5L2, C3aR and CD88-transfected RBL cells were produced as described (17). G16 was cloned from human monocytes mRNA and authenticated by sequencing. Human G16 and either C5L2 or CD88 were ligated into the bicistronic expression vector pIRES (Qiagen). Stable transfection of RBL-2H3 cells with pIRES constructs was achieved by electroporation (18). Cells underwent three rounds of fluorescence-activated cell sorting using anti-CD88 antibody (clone S5/1; Serotec) or anti-hemagglutinin peptide antibody (Roćhe Molecular Biochemicals, clone 12CA5), selecting the top 5% of receptor-positive cells in each round.
(§3) Competition binding assays were performed using 50 pM ^125I-C5a or ^125I-C3a (NEN) on adherent C5aR-transfected or C5L2-transfected RBL cells in 96-well microtiter plates (55 000/well) at 4° C. as described previously (22). Competition curves were generated by pre-incubating adherent cells with increasing concentrations of unlabelled complement fragments. […]

C3aR [3] = biological target: T3, C3aR (Homo sapiens, UniProt Q16581); assay: Radiolabelled ligand competition receptor binding, C3aR-transfected RBL cells; conditions: C3aR expressed in RBL cells; competition binding
T3 construct: expressed in transfected cells
T3 sequence (Q16581 1-482): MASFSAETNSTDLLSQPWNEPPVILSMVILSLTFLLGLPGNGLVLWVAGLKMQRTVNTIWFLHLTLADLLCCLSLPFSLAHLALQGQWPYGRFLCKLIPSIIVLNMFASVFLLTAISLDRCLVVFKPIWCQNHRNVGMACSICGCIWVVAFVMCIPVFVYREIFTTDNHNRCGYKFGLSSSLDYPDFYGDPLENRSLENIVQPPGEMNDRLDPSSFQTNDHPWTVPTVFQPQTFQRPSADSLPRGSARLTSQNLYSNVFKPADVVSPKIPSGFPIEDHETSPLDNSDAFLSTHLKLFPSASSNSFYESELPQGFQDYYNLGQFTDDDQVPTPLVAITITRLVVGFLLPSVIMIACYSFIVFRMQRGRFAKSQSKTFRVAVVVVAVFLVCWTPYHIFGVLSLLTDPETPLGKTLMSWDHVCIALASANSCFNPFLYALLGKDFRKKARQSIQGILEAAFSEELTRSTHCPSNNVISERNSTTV
Source text: as §2
(§4) Competition binding assays were performed using 50 pM ^125I-C5a or ^125I-C3a (NEN) on adherent C5aR-transfected or C5L2-transfected RBL cells in 96-well microtiter plates (55 000/well) at 4° C. as described previously (22). Competition curves were generated by pre-incubating adherent cells with increasing concentrations of unlabelled complement fragments. The IC50, standard error values and linear regression analyses were obtained by using GraphPad Prism 2.0.

C3aR [4] = biological target: T3, C3aR; assay: Degranulation of C3aR-transfected RBL cells; assay type: cell-based; conditions: RBL cells transfected with C3aR; data not shown
Procedure: Cellular activation was measured as the release of -hexosaminidase from intracellular granules (20). In the enhancement of degranulation assay, cells were treated with 1 μg/ml IgE^DNP (21) overnight, then with chemoattractants or peptides for 10 min prior to stimulation with 100 ng/ml DNP-HSA (Sigma) for 15 minutes. EC50 and standard error values were obtained by iterative curve fitting using GraphPad Prism 2.0.

C5L2 [5] = biological target: T2, C5L2; assay: Competition binding with 125I-C5a, C5L2-transfected RBL cells
Procedure: as §1, §2, §3

CD88 [6] = biological target: T4, CD88 (Homo sapiens, UniProt P21730); assay: Radiolabelled ligand competition receptor binding, CD88-transfected RBL cells
T4 construct: expressed in transfected cells
T4 sequence (P21730 1-350): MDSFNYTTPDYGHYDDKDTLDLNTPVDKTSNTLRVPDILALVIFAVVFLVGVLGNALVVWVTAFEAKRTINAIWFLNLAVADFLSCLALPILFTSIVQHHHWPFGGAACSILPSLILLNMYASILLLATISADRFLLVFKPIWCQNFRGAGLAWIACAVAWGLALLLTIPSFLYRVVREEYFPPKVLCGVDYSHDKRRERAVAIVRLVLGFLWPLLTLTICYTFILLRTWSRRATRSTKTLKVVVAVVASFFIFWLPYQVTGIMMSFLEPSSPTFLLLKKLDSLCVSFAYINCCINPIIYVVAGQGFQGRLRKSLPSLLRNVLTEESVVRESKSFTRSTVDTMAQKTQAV
Source text: as §2, §4

CD88 [7] = biological target: T4, CD88; assay: Degranulation of CD88-transfected RBL cells; assay type: cell-based; conditions: RBL cells transfected with CD88; data not shown

T2 sequence (Q9P296 whole entry): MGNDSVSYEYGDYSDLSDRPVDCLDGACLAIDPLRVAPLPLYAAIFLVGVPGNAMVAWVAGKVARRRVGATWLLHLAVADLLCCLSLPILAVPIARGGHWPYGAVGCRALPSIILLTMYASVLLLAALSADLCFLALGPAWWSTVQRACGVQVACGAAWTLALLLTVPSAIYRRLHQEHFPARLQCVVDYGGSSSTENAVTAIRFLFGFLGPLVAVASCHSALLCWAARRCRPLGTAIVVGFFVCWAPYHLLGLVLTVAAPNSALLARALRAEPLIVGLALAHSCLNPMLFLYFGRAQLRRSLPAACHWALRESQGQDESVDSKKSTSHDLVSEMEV
T1 sequence (Q9P296 whole entry): as above

B1: C4a: complement fragment of C4 (protein)
chain: NVNFQKAINEKLGQYASPTAKRCCQDGVTRLPMMRSCEQRAARVQQPDCREPFLSCCQFAESLRKKSRDKGQAGLQR
In the case of B1, the “enhancement of degranulation response to IgE receptor cross-linking” value (C5L2+Gα16) is reported as “inactive”.

B2: C5a des-Arg^74 (protein)
chain: TLQKKIEEIAAKYKHSVVKKCCYDGACVNNDETCEQRAARISLGPRCIKAFTECCVVASQLRANISHKDMQLG
modifications: left off: small tags and cut ends
notes: desarginated metabolite of complement fragment C5a
In the case of B2, the agonist character (C5L2 [1]) is reported as “only a partial agonist”.

B3: C4a des-Arg^77 (protein)
chain: NVNFQKAINEKLGQYASPTAKRCCQDGVTRLPMMRSCEQRAARVQQPDCREPFLSCCQFAESLRKKSRDKGQAGLQ
notes: desarginated metabolite of complement fragment C4a
B3 was tested, and the “competition with ^125I-C3a for C5L2 binding” value (C5L2 [2]) was “can compete strongly”, the IC50 (C3aR [3]) was 10 µM and the stimulation of degranulation (C3aR [4]) was “neither C3a des-AXg^77 nor C4a des-Arg^77 can stimulate degranulation”. For the same molecule, the IC50 (C5L2 [5]; C5L2 (^125I-C5a) expressed in RBL cells, 50 pM radioligand) was 17 µM, the “competition with ^125I-C5a binding to C5L2” value (C5L2 [5]; FIG. 1B) was “cannot compete effectively” and the “competition with ^125I-C5a binding to CD88” value (CD88 [6]) was “cannot compete effectively”. The stimulation of degranulation (CD88 [7]) was “neither C3a des-AXg^77 nor C4a des-Arg^77 can stimulate degranulation”.
